Experimental findings from paper PMC9605866, “Structures of the TMC-1 complex illuminate mechanosensory transduction” (Nature, 2022) are described below.

Data set [1] deals with the molecule itself. Kind of data set: single-molecule pulldown (SiMPull) with photobleaching step counting; SEC-purified mVenus-tagged TMC-1 complex (Flag peptide elution) diluted 1:200, captured on biotinylated anti-GFP nanobody on streptavidin/PEG slides, TIRF; 20 mM Tris pH 8.0, 150 mM NaCl, 0.02% GDN, 3 mM CaCl2; 600 molecules from 3 movies.
Data set [2] deals with the molecule itself. The data set is described as follows: cryo-EM structure; native TMC-1 complex in GDN, 20 mM Tris-Cl pH 8.5, 150 mM NaCl, 3 mM CaCl2, on 2 nm carbon-coated grids; one dataset, three classes: expanded, contracted, with ARRD-6.

B1: transmembrane channel-like protein 1 (TMC-1) with C-terminal mVenus and 3×Flag tag, from tmc-1::mVenus knock-in worms (natural protein, C. elegans, UniProt D3KZG3 1-1285, looked up)
chain: MQEAARRASLRKEHTPTNEKFGDLSKQDSLGERASSKLTLDDELYDILYAFGETDAFINKGDKQRETDEDGNPLTRQALLERIRQKKEVIGKLRCQAWSMTRKRRTLKLAQKYLEQHESKVSRSHLYMEEMRKRARLMKRSFSNFKTYLIPWESKIKRIESHFGSVVSSYFTFLRWIVFVNIMITLIALVFVVLPETLADSVANEGRFNRTKTRKQIPANERVHADELAVVWHYDGYLRYSPLFYGYYSDDPFLGNKIKYALPLAYFMVTLTIFAYSFFAILRKMAANARMSKLSGSKAEQYIFNWKLFTGWDYTIGNSETASNTVMAVVIKLRESIADIKKDAHGKFRLLQFSLRVFANIIICAMLGFSIYCIIFAVQKSQVQDDGNLFTKNQVPSVVSTITHVFPMIFDLIGKMENYHPRTALRAHLGRVLILYTVNYITLIFALFEKMTALRDRVNSTSTSSSHRTKRQQGGWNPNMQRPPPYASRAEVRQMSDFLAANTRRFQTVSQRTTRSVTTPFTVAPQFGPFNVNNPNAVFHNGTHSTSFESQILGPKALPIFTPPPRKYPGFTPGNVGQQFGGPDFPRNQVYTKSTPLPRVRTKPPWVYTTTHPPLVQNRAMTTTMSKSAKKGNSKNLDDDILLSNETIQMSEAALRRNHDGHNNDICWETIIGQEIVKLVTMDLIFTILSILVIDLFRGLWIKYCSSWWCWDIETTFPEYGEFKVAENVLHIINNQGMIWLGLFFAPLLPAINNIKLIILMYIRGWAVMTCNVPAREIFRASRSSNFYLGILLIWLLLCTLPVGFVIASMSPSRSCGPFARYQHFYTVVTREIEKRVDQTVLSYIRHIASPGVVIPIILFLILIIYFLFSLVRGLREANTDLQAQLVHERTEEKKKIFELAGGKKNKFEKDRDKKRSNDYIPLIEQRRREPWRQYHEMEADHALASDSSEESDINEDEDDERQPLTAYPLRAIETPPETLQVTAFHPSLGSLIENREMEDEESASGDQLPMIHKSVSFQGPSHMQMRQSISTESCSQISRSAIQVATPEEIRALLRPYLEAKYGIPYQHGIKSFPIDVHTPPNNTPSRRSSKYNSFVSLYEHTRDDHKNFVASTIKETDEDPGKSDKKQTSSKDVAPDFMPWPSADEARALREKMKSKTPLMLTKTTVEEKPKGGKSSESEFRPPVPIHRKYNIQTTEEENEEEETDSAPESSKKRFRISVSPTKTIAPASASRAQHKIVSQASSSSSIPHGRQPDPNKKASLVLPPLRAPRVQFDEDDSPRQID
notes: TMC-1, C. elegans, endogenous gene (Wormbase T13G4.3.1); mVenus-3×Flag inserted immediately before the stop codon, PreScission (3C) site between the C terminus of TMC-1 and mVenus; residues M1 to D1285; that sample was afterwards eluted by 3C cleavage and run on SEC) and as imaged in SiMPull (Flag peptide elution, mVenus kept); also called TMC-1-mVenus-3×Flag; mVenus-tagged TMC-1; source: …
B1: the “stoichiometry N” value in data set [1] amounted to 2.

B2: transmembrane channel-like protein 1 (TMC-1), native, after 3C protease elution (natural protein, C. elegans, UniProt D3KZG3 1-1285, looked up)
chain: B1 chain
modifications: N-glycan at N209
notes: TMC-1, C. elegans, endogenous gene (Wormbase T13G4.3.1); residues M1 to D1285; not modelled: M1-P73, S460-N663, L886-D1285; Residues of the 3C site may remain at the C terminus after cleavage; Two copies stand in the complex (two-fold symmetric dimer); also called TMC-1 subunit; TMC-1 protomer; source: endogenous tmc-1 locus, tmc-1::mVenus knock-in worms; purified (anti-Flag M2 resin, 3C protease …)
For B2, the “stoichiometry N” value in data set [2] was 2.

As usually defined, the stoichiometry N is a count of units in the complex or per binding partner.
